Test results as given in the DeepSol protein solubility set.

Assay: soluble on expression in E. coli; label from the status in PepcDB or PDB records

Soluble on expression in E. coli, not soluble:
MGSDKIHHHHHHAAEGRKDFNLYTLVPGSATVVLETDDLAGMIQGINELSCSKDRHFLYVSKLFSYLKLHLYTLLEDTPHGLSKQMNKVLLSFHEPDNDRNQVLYCSLGNGDYELVEKFIRKYCSSSFPSKLFDYKGEEIRIYPMPDDSFLACYFTSDFLVVSYQKKLIEQVIDARLSKKSLLTDASFAKVHEDKRARVAATIYARMQPLSMGKATDGIRSCTQLGGWTEFDMKMNGDAIYFSGVSHDTDTCLTFMNVLRQQQPVEDFPGDILPASTFFFNKRSVTDMQAMLDFTARQEYTTSTYSDYIRDRDGELLAYLKENAGGEIVTCLFHSTDTLSNPCAVMSIPLRDGQQAERVLQGMLRTAPKEVDGPPKPRTTFCKTPLRAYTLYVLPRNTLFTQLTGITESALYIYACFYEGRLVLAPDVESLTAYLRHLDKKEILDDTPGYEEAVVNLSPSYNFMMVADLGETFSQPENYVRLIPAFFFRNQEFFRHFILSAQFTCTDGIVYPNVVLIYKGESDDVS
MGSDKIHHHHHHAAPAPQAPALPANLTTRTWVLTDLAPGGKLRRVTGERPTLTWTVQPGGLQLSGSTGCNTYRGPATVTGQQLKVSALATTRRGCAPTQAQQENDFLTLLRGASHYRLSGQTLTVYAASTARLVFTAAPGGSMTTPSNTPAGANTPTGTTLKAAQLAGDWQLTDLREGGQAVTLPADAPFTFTASGTNTLRLSGMAGCNRLMGEVTLSGAGLTFGPLAATRMACEDMTAEQALSRVLQGSGQVTLKGDTLTWHRSGGEVVLTRRAPAATTADLSGSYRLLSVNGTAADARRTVSLTFKAGQVGGFDGCNSFGGEYSLDKAGHLTAGNLVTTLRACPDQLDQPILTALLGQAPTVQLRGRTLTLDAGGERWVFERE
MGSDKIHHHHHHAATHAKTTKTVKTTGGAKTKAAKAKAIKSTSTHIKLQGASNARDLGGYVNRHGQKIKAHRLIRANSLSHLTKADQTKLVKTYHVATDVDLRTTTEQKMSPDVHMAGVKLVKANVFKSFGAFPDFSKKGAGAKMMEKTYHDAVTTAQGRKAYKSLFHQLLINPKGKAVLWHCSAGKDRAGMGTALVLSALKFDKKAIAQDYLKSNTYLAQTNKENLQKMEAGWKAQGKEVTPIVVENFRAQNAVKMAYLNTMYKAIDAKYGNMDNFLHKGLGLSNTQLKQLQANYLTSAK
MGSDKIHHHHHHAAVTKTTWSDAPAREFVFVENNSDDNFFVTPGGALDPRMTGANRWTGLKYTGSGTIYQQSLGYIDNGYNTGLNANWKFDMWLENSPVSHPLTGLRCINWYAGCDMATSLILPQTTDASGFYGATVTSGGAKWMHGMMSDAFYQYLQQMPVGGSFTMTINACQTSVNYDASSGARCKDQASGNWYVRNVTHTKAANLRLINTHSLAEVFINSDGVPTLGEGNADCRTQTIGSRSGLSCKMVNYTLQTNGLSNTSIHIFPAIANSSLASAVGAYDMQFSLNGSSWKPVSNTAYYYTFNEMKSSDSIYVFFSSNFFKQMVNLGISDINTKDLFNFRFQNTTSPESGWYEFSTSNTLIIKPRDFSISIISDEYTSAPSREGYVGSGEPALDFGYIVTTSGKTAADEVLIKVTGPAQVIGGRSYCLFSSDDGTAKVPFPATLSFITRSGTTQTYDAGCDDSWRDMTDALWLTTPWTDISGEVGQMDKTTVKFSIPMDNAISLRTVDDNGWFGEVSASGEIHVQATWRNIN
MGSDKIHHHHHHACDDYLDDVPKGQKIPKTWEDYNAFIRNNFSYHFLDPDQLAVLAGDIFKLPSAVTSPSLTRANYYADESVNRIDLMTGNDKNPYFNAYEGLFAWNLIVEDVPDATECTEVQRRQLIAQGRVLRAMHYFYLANFYADQYDEATKDKLSVPLITSASVEAPSPQVTLQTIYEFMLDDLNKAVEDLPVHSESILHPNRALGYGMLARVYLSVGDYDNALKNASLALEQNDQLFNWIDLYEADKERYDDPKNYTSGVAGNPETDNVENYIYCYGSSTSGWTGLNNTSYAISPERAARFEKGDTRLLTHWKSRVSSSGIPYYAGIYALEMNKGGMRSPEMYYIKAECLARKGGEANIREAMELVNKVRKTRILLEFYQDWTAATTKEAVEKIIRDKESEYIQTQVIYCDYRRLNKDPEYARTFPRTIEGKEYILKSDSHLWIMPFPREAVSNPGNGTITQNVEK
MGSDKIHHHHHHACDGKVYKKGDKIMFGVPKVSGYLFVRTFTKDGKISTMPKENLASQEAVIVDIPDYDKKLFEGMGVYSEVETHPLVVVELDGRRLCININDALSQGNIVSEYFKSEVEGMVDLTSDLLFVYALKLNNVTVDDDVIVRYMAHCDKNLVEKNQADPFTMADLKKEYAAKLEKALGDVDFSKVFRIESQSEMLQYDMDKQIFPLKGLWCPQIKTDQPDALAKIGFCKWDDCVFRFVNIPEFMNVPCETARAKGFYDMRKVGKVPTYNTPLATSYTYIRFLDKKVQLPEKKNKVYHNGDIKSMSLADLYGKMAIEAQIIKMDVYHLPFLKISDFELFYNYLGSIEVK
MGSDKIHHHHHHAERKNALKVDNGHYYKWKEGNIFYTKTGTGKPILLIHDTDSGASGEEWAKVAKKLAKNNTIYTIDLLGCGRSDKPSIQYTSYMYVQIITAFVDDVIGKPVNVAATNLSTAPVIMANALSKDLFNKIILINPVSLQQLKCIPDKSTKFKQNIINLPIVGTFIYNKLMSPIKVDLLFRNKFISRSQLISDNMKDAYYESAHKGQSRGKYLYSSILSNYINTNIAPALKNLDKDVSIIASTGIKNNMDVINNYHKLNSKCDIIHIANAKLYPQLELPEKTASIIKKIVTN
MGSDKIHHHHHHAETVVVRLGLFTESISLTELQNAAKTGELPRSLQSYAKGLSEQQRRFLLGALGMNIPMNVVTINKLLNTQIGTTILNDFATALARKDNAGVQALRGGLVLGSTAPGGLSILSFIAAYPSKRLEIDLPKAFIVAGNLNTAFWRTQQFMVAIAPRLDSTTSQIAFPFDPSQPGTAQVKILNLSLNDQKRQRKIPVDIYWSNDATANKPLIVFSHGLGSVRTDLRYLAEHLASHGYVVAALEHPGSNEDNINSALQGKTRPVKPQEFLNRPQDVSFVLDELEKLNQTTNHPLQGKLATMNAMVVGYSFGGSTALALAGGELQLERLKQRCKKNLAILSLGEAMQCIAQELPENTYQLRDTRIKQAIALNPTTSLIFGETGLTKVQVPTLVLAGSADKTTPALTEQIVGFDKIPSPKWLVGIVGGTHLSVKDPSKTMDQIGQPNTPISGGEVVGEQAADIRKYLKAITLAFAAQMTPEAKNYAIFLTSDYAQFASTKAFPFRLITQIPSNAMPVVKEFGDK
MGSDKIHHHHHHAEYIHVIPADASAVASINLNSLADKAGLNDKQNEGMKQKMMEALKSGMNAAAFQQLEKIMKNPSQSGIDVKAPVFVFTSKTFISPTIVAKVSNIEDLRASLDLMAKEGICQPIAEEEGYSFTSLQKNNLLVFNENAAVLTEAYGTSQMDVAKQTISTLLKQTEENSIASNGSFRKMQDQKGDINFFASMDAVPKMYTQQISLGLSSQIDLSEVKAVGNLNFEKGKIALQIETYSDNAETDALLKKQAQAVKKLNTTFLQNFPESTLAFLNIGVNGAAFYDLLFNNEEFRRNVSLAKADEVKSLFASFDGDISIGLINVTLNSVPTFAAYADAKNGNALKALYDNKKQLKLGKNEDIIQLGENEYVYKSRATNVFFGIRNKQMYATNDELLYKSISKPVEKSIKDAGYVSDMKGKNVFFVINMDAILDLPVVKMMAGFGGEEYQTYYKLASKISYIEAFSDSEGKTETAILLKNKDDNALKQIVDFAKQFAGM
MGSDKIHHHHHHAGCAMIPPEPVVTGPLTAPPPPPPQPSARPNGSIYQPSAYGNYPLFEDRRPRNVGDIVTIVLEEKTNAAKGVATNTSRDGSATLGVAAAPRFMDGIINDKLDTDISGGNTANGTGKSSANNTFTGTITTTVIGVLPNGNLQIAGEKQIAINRGSEYVRFSGVVDPRSITGSNTVSSTRVADARIEYRSKGVMDEVQTMGWLQRFFLIASPF
MGSDKIHHHHHHAPFVFDQQSYRQDVQTLASDEFEGRGPLSQGETLTVEYLENAFKKMGLAPGFGDSYRQSVPMAKITADQNMQLKVGELVFNNGSDFTARTEQIQPSITLDNSEIVFVGYGINAPEYGWNDYAGIDVKGKTVILMVNDPGFATQDPEVFKGNAMTYYGRWTYKYEEAARQGAKAVFIIHETAPAAYGWNVVQNSNTNTKYTLVDKEKNRSHIGVMGWVQHEVAQKIFTAAGLDYDKLKLTAAKPGFKSRSLDLKANLEVKNDIELATSYNVAGLLPGKTRPDEWLVMHAHWDHLGKTVHEDQTRIYNGAVDNASGVAGVLQLARHFKDLSATQPPARSMLFSAFTAEETGLIGAQYFAENSPVPTKQLVAFLNIDGMNVGKGVDYILRYGEGVSELENYLDKAAKAQGRWVKADPRPQNGLMFRSDHFALAKQGVPGLMFMSLGDTDPDYIAHKYHQGADDYDPSWTLGGVEQDLALISDILEKLANNNDWPKWLEASDFKTRRAQDGR
MGSDKIHHHHHHAPKKKEEPSPEASSSKRPFRVCLNVSTIAGYKLPVQKQIDLCAEAGFEGIELWTRDVDAFVKQGGTYETLRRQLEGSGLLLENMIGFASWFADDLSKRKEGLNQMRHDMEMVAGLGGKFIAAPAQGVTQLDRTRLPEYSERYRAILDLGDEMGVTPILELWGAGILNQLSDTMAIAIASGHSRASVLLDFYHLYRGGNSFDSLRLINGKILPVFHINDYPELPPRTELRDSDRVFPGDGICPFNKVLPLLYDSGFRGGLSVELFNKGYWETMDVKEVLKKSFEKTTQVINSSMG
MGSDKIHHHHHHAQKGVDNGTQFGSGEDSVRCITNISLFVPYAKAGNFKDAYDFWKIVYDECPAATKDIYLYGVKIMGWKIAQEKDPAKKNALIDDLMGVYDKRVKYFGNDRRYGKDWIVARKVQDYLAQTGDNADYNQAYTWLKEIVDEKGADTEALGLSLFSFSSMKKMLNDPNFKEQYIQDYLKVSAGLDAQLKAAQAANNQKEVNALTAYKSGVDNAFANSGAADCETLQNLYAAKIEENKDNLPYLKETISLLRRTGCQEIEAYFLASDYAYRQEPSAEAAVGLGKKAVKIKDYDTAIKYFDEAANLETDATSKADDYYMIALLLFEQNAYSKARQYCQKALEVNPNYGNAYLLIGKMYAATSKSVFPNDGVLARAAYNAAIDKFEKAKQVDPSVAEEANTLISSYRAHLPSTEEIFMHPDLEKGKPFTVGGWIGERTTIR
MGSDKIHHHHHHASNPVLRISDGWVADTIAPALIHYRFAGYDSISQAHQNVDVLEVDLTSPSYDIQLVYEEHGDSLSSVAERNNAAAAINGTYEAEASFIKIGGRLLAQNRLDSTHIRYWKHEGAFLFDDDNKNIDIRFASDSTFLSHPAANILSGAPMLIDNNDPVGLNFTGNVEGMDLNKLDYEDFRRHQGVRHPRTAVALTEHKKLLLITVDGRSTQAAGMSANELTRFLLTYFCPQSALNLDGGGSTTMWIASSEQRVGGVVNHPTDNKKFDHAGQRRVTSFIVIKSSENHE
MGSDKIHHHHHHCGGGTERKGLEALVAEYKKLNPDVDFEIIDISYSSYMQKISLAVMSGDVPDLMTITYPFAPELRKYLIDLDPYIEKYLGITPKEYEDAFYNVVKPYIKDENGKIKYVPLHFTVQGLWVNVDYFEKAGIPFPPLGGREEPWTWEEFVEVLRKVKEANNLPYAMSMQYSAERIANYLAIRGAKVLDENLNLVLDKDPKAIKALEDFVNLFKENLCVPAEWVSGQSADNDFYGGVTAVYWAGSWETLDALSVEGKRFLPAYLPKDEYCFGVEGGRFFGAFKTGDKKKEEEAAKFALWAGWKGKGYDIYLKTTLHLSAYKDHKVDYGVPIMESVQKVFGYLAANAPEWIVTVRANPVWSRLYDPLRKQISLVIAGQQDLQTALKNIRAEYERIVEELGIK
